Data from article PMC4938167, “Structural Insights into the Polyphyletic Origins of Glycyl tRNA Synthetases*^([image sbox.jpg])^♦” (The Journal of Biological Chemistry, 2016).
One block for each molecule: values may come before it.

What was measured:
α-AaGlyRS = biological target: T1, α-AaGlyRS (Aquifex aeolicus, UniProt O67081); assay: thermal shift assay, SYPRO Orange; type: binding; details: 8 mM GSAd; reference Tm without ligand 83.2 °C; 25 mM NaH2PO4, 25 mM KCl, 10 mM MgCl2
T1 construct: gene glyQ; alpha subunit alone of alpha2beta2 GlyRS; synthetic codon-optimised gene in pET-28, N-terminal His6 (His tag/TEV residues kept), E. coli BL21(DE3)

purified protein = substrate: NCC(=O)O; assay: purified protein; type: biochemical, Aquifex aeolicus; details: 0.5 mM ATP, 10 mM MgCl2, 50 mM Tris pH 8.0, 50 mM KCl, 45 °C, 40 μM enzyme, alpha subunit alone
[1] = biological target: the molecule itself; assay: SEC-MALS; Superdex S-75 10/300 analytical column, 0.5 ml/min, DAWN Heleos-II and Optilab RI detectors; protein loaded after concentration to 15 mg/ml; one peak with 99.9% of the injected mass

Tm with 8 mM ligand (α-AaGlyRS): 92.3 °C
Molecule: NCC(=O)NS(=O)(=O)OC[C@H]1O[C@@H](n2cnc3c(N)ncnc32)[C@H](O)[C@@H]1O [GSAd, 5′-O-[N-(L-glycyl)sulfamoyl] adenosine]

B1: α-subunit of the α2β2 glycyl tRNA synthetase (GlyRS) from Aquifex aeolicus (enzyme)
chain: MYFQDIIMTLHKFWAEKGCLIWQPYDVEVGAGTMNPATFLKVLGKKPWNVAYVEPSRRPQDGRYGENPNRLQHYYQFQVILKPAPRNPQEIYLESLERLGINPLEHDIRFVEDDWESPTLGAWGLGWEVWLDGMEITQFTYFQQAGGLDLDEISVEITYGLERIAMYIQDKDSVFDIEWKEGITYGEIFKRSEWEWSKYNFELADTDMLFQVYEMFEKESKRMVEEGLIFPAYDYLLKCSHVFNILDARGAISVQERARYIRRMNNLAREIAKLYLQVFENVGAT
notes: Glycyl tRNA synthetase α-subunit, Aquifex aeolicus; synthetic cDNA (Genscript), codon-optimised for E. coli, in pET-28; No cleavage of the tag is described; The theoretical mass of the dimer is printed as 67.4 kDa; Crystals were soaked with the glycyl adenylate analog GSAd; also called α-AaGlyRS; α-subunit GlyRS; source: E. coli BL21(DE3), purified (heat treatment 75 °C, Ni2+-Sepharose, size …)
Km (purified protein): 110 ± 16 µM
kcat (purified protein): 0.00023 s⁻¹
stoichiometry N [1]: 2
